This experiment addresses T1, rPODXL-v2-Del-Fc fusion protein (human, UniProt O00592-2 23-429, highly glycosylated).
T1 construct: extracellular domain; In-frame fusion of the ECD and human IgG1 Fc, expressed in CHO-K1; The two deletions are written as substitutions to '-'; not shown: human IgG1 Fc from the pFUSE-hIgG1-Fc1 expression vector (InvivoGen)
T1 sequence (looked up): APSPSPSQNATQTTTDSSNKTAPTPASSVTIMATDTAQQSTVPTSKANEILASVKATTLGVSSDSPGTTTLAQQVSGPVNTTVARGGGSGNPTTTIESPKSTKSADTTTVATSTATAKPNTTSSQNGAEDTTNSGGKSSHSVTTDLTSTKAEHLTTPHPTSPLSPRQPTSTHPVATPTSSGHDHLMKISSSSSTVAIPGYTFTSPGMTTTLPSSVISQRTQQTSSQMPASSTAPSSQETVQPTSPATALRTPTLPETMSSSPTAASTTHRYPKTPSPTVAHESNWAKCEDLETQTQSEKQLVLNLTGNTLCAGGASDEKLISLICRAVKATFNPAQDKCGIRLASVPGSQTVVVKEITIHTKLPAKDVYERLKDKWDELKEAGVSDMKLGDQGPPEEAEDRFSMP
Nature of the experiment: BLI (Octet QKe), mAb captured on anti-mouse IgG Fc (AMC) biosensors, antigen in 1:2 serial dilutions. Here is the method:
The Octet® QKe System (Molecular Devices, San Jose, Calif.) was used to determine the binding affinities between MAI1738 mAb and the extracellular domains of PODXL-v2 and PODXL-v2-Del. The MAI1738 mAb was immobilized to the Anti-Mouse IgG Fc Capture (AMC) biosensors, followed by loading of the antigen, rPODXL-v2-Fc or rPODXL-v2-Del-Fc, at 1:2 serial dilutions for 5 minutes. The assay was repeated multiple times to determine the average range of the affinity between MAI1738 and rPODXL-v2-Fc or rPODXL-v2-Del-Fc.

B1: MAI1738 mAb (antibody, V domains shown)
VH: EVKLVESGGGLVKPGGSLKVSCAASGFTFSTYTMSWVRQTPEKRLEWVATISGGVIYTYYPDSVKGRFTISRDDAKNTLYLQMSSLRSEDTALYYCARHYSNYEGQGMDSWGQGTSVTVSS
VL: DIVLTQSPVTLSVTPGDSVSLSCRASQSINNNLHWYQQKSHESPRLLIKYASQSISGIPPRFSGSRSGTDFTLSINTVETEDFGVYFCQQSNSWPLTFGAGTKLELKR
notes: Mouse monoclonal antibody from a hybridoma (A/J mice); it is detected with anti-mouse IgG-Fc; also called anti-PODXL-v2 monoclonal antibody; second subclone of MS17-38
One may read the Kd as a measure of binding affinity in units of concentration. In turn, B1 yielded a Kd of 1.58 nM. This counts as single-digit nanomolar.

These data come from patent US20210139602A1 (MEDABOME, published 2021).
